Measurements taken from the RNAGym collection of RNA variant scans (doi:10.7554/elife.80360).

B1: HDV Ribozyme (parent)
chain: GGCCGGCAUGGUCCCAGCCUCCUCGCUGGCGCCGGCUGGGCAACAUUCCGAGGGGACCGUCCCCUCGGUAAUGGCGAAUGGGACCCA

Variants of: B1
Experiment: self-cleavage, relative activity (ratio to wild type); higher = more cleavage; co-transcriptional

Variant | self-cleavage
GGCCGGCAUGGUCCCAGCCUCCUCGCUGGCGCCGGCUGGGCAACAUUCCGAGGGGACCGUCCCCUAGGUAAUGGCGAAUGGGACCGA [C66A C86G] | 1.12
CGCCGGCAUGGUCCCAGCCUCCUCGCUGGCGCCGGCUGGGCAACAUUCAGAGGGGACCGUCCCCUCGGUAAUGGCGAAUGGGACCCA [G1C C49A] | 0.237
GGCCGGCAUGGUCCCAACCUCCUCGCUGGCGUCGGCUGGGCAACAUUCCGAGGGGACCGUCCCCUCGGUAAUGGCGAAUGGGACCCA [G17A C32U] | 0.369
GGCCGGCUUGGUCCCAGCCUCCUCGCUGGCGCCGGCUGGGCAACAUUCCGAGGGGACCGUCCCCUCGGUAAUGGCGAAUGGGAUCCA [A8U C84U] | 0.506
GGCCGGCAUGGUCCCAGCCUCCUCGCUGGCGCCGGCUGGGCAACAUUCCGAGGGGACCGUCCCCUCUGUAAUGGCGAAUGUGACCCA [G67U G81U] | 0.155
GGGCGGCAUGGUCCCAGCCUCCUCGCUGGCGCCGGCUGGGCAACAUUCCGAGGGGACAGUCCCCUCGGUAAUGGCGAAUGGGACCCA [C3G C58A] | 0.842
GGCCGGCAUGGUCCCAGCCUCCUCGCUGGCGCCGGCUGGGCACCAUUCCGAGGGGACCGUGCCCUCGGUAAUGGCGAAUGGGACCCA [A43C C61G] | 0.359
GGCCGGCAUGGUCCCAGCCUCCUCGCUGGCGCGGGCUGGGCAACAUUGCGAGGGGACCGUCCCCUCGGUAAUGGCGAAUGGGACCCA [C33G C48G] | 0.227
GGCCGGCAUGGUCCCACCCUCCUCGCUGGCGCCGGCUCGGCAACAUUCCGAGGGGACCGUCCCCUCGGUAAUGGCGAAUGGGACCCA [G17C G38C] | 0.0831
GGCCGGGAUGGUCCCAGCCUCCUCGCUGGCGACGGCUGGGCAACAUUCCGAGGGGACCGUCCCCUCGGUAAUGGCGAAUGGGACCCA [C7G C32A] | 0
GGCCGGCAUGGUCCCAGCCUCCUCGCUGGCGCCGGCUGGGCAACAUUCCGAGGGGACUGUCCCCUCGGUAAUGGCGAACGGGACCCA [C58U U79C] | 0.38
GGCCGGCAUGGUCCCAGCCUCCUCGCUGGCGCCGGCUGGGGAACAUUCCGAGGGGACCGUACCCUCGGUAAUGGCGAAUGGGACCCA [C41G C61A] | 0.928
GGCCGGCAUGGUCCCAGCCUCCUCGCUGGCGCCGGCUGGGCAACUUUCCGAGGGGACCGUCCCCUUGGUAAUGGCGAAUGGGACCCA [A45U C66U] | 1.02
GGCCGGCAUGGUCCCACCCUCCUCGCUGGCGCUGGCUGGGCAACAUUCCGAGGGGACCGUCCCCUCGGUAAUGGCGAAUGGGACCCA [G17C C33U] | 0.0475
GGCCGGCAUGGGCCCAGCCUCCUCGCUGGCGCCGGCGGGGCAACAUUCCGAGGGGACCGUCCCCUCGGUAAUGGCGAAUGGGACCCA [U12G U37G] | 0.277
GGCCGGCAUGGUCCCAGCCUCCUCGCUGCCGCCGGCUGGGCAACAUACCGAGGGGACCGUCCCCUCGGUAAUGGCGAAUGGGACCCA [G29C U47A] | 0.214

Variant | self-cleavage
GGCCGGCAUGGUCCCAGCCUCCUCGCUGGCACCGGCUGGGCAACAUUCCGAGGGGACCGUCCCCUCUGUAAUGGCGAAUGGGACCCA [G31A G67U] | 0.439
GGCCGGCAUGGUCCCGGCCUCCUCGCUGGCGCCGGCUGGGCAAUAUUCCGAGGGGACCGUCCCCUCGGUAAUGGCGAAUGGGACCCA [A16G C44U] | 0.615
GGCCGGCAUGGUCCCAGCCUCCUCGCUGUCGCCGGCUGGGCAACAUUCCGAGUGGACCGUCCCCUCGGUAAUGGCGAAUGGGACCCA [G29U G53U] | 0.0213
GGCCGGCAUGGUCCCAGCCUCCUCGCUGGCGCCGGCUGGGCAUCAAUCCGAGGGGACCGUCCCCUCGGUAAUGGCGAAUGGGACCCA [A43U U46A] | 0.653
GGCCGGCAUGGUCCCAGCCUCCUCGCUGGCGCCGGAUGGGCAACAUUCCGAGGGGACCGUCCCCUCGGUAAUGGCGAAUGGGACCAA [C36A C86A] | 0.134
GGCCGGCAUGGUCCCUGCCUCCUCGCUGGCGCCGGCUGGGCAACAUUCCGUGGGGACCGUCCCCUCGGUAAUGGCGAAUGGGACCCA [A16U A51U] | 0.914
GGCCGGCAUGGUCCCAGCCUCCUCGCCGGCGCCGGCUGGGCAACAUUCCGAGGGGACCGUCCCCUCGGUAAUGACGAAUGGGACCCA [U27C G74A] | 0.193
GGCCGGCAUGGUUCCAGCCUCCUCGCUGGCGCCGGCUGGGCAACAUUCCGAGGGGACCGACCCCUCGGUAAUGGCGAAUGGGACCCA [C13U U60A] | 0.554
GGCCGGCAUGGUCCCAGCCUCCUCGCUGGCGCCGGCUGGGCAACAUUCCGAGGGGACCGUCACCUCGGUAAUGGCGAAUGGCACCCA [C62A G82C] | 0.271
GGCCGGCAUGGUCCGAGCCUCCUCGCUGGCGCCGGCUGGGCAACAUUCCGAGGGGACCGUCCCCUCGGUAAUGACGAAUGGGACCCA [C15G G74A] | 0.13
GGCCGGCAUGGUCCCAGCCUCCUCGCUGGCGCCCGCUGGGCAACAUUCCGAGGGGACCGUCCCCUCGGUAGUGGCGAAUGGGACCCA [G34C A71G] | 0
GGUCGGCAUGGUCCCAGCCUCCUUGCUGGCGCCGGCUGGGCAACAUUCCGAGGGGACCGUCCCCUCGGUAAUGGCGAAUGGGACCCA [C3U C24U] | 0.679
GGCCGGCAUGGUCCCAGCCUCCUCGCUGGCGCCGGCUGGGUAACAGUCCGAGGGGACCGUCCCCUCGGUAAUGGCGAAUGGGACCCA [C41U U46G] | 1.02
GGCCGGCAUGGUUCCAGCCUCGUCGCUGGCGCCGGCUGGGCAACAUUCCGAGGGGACCGUCCCCUCGGUAAUGGCGAAUGGGACCCA [C13U C22G] | 0.0831
GGCCGGCAUGGUCCCAGCCUCCUCGCUGGCGCCGGCUGGGCAACAUCCCGAGGGGACCGUCCCCUCGGUAAUGGCGAAAGGGACCCA [U47C U79A] | 0.65
GGCCGGCAUGGUCCCAGCCUCCUCGCUGUCGCCGGCUGGGCAACAUUCCGAGGGGACCGUCCCCUCGUUAAUGGCGAAUGGGACCCA [G29U G68U] | 0.135
